Measurements from paper PMC6429962 (Cell reports, 2019).

B1: human Wnt3a lacking the acylation site (hWnt3a^S209A) (ligand, UniProt P56704 19-352, looked up)
chain: SYPIWWSLAVGPQYSSLGSQPILCASIPGLVPKQLRFCRNYVEIMPSVAEGIKIGIQECQHQFRGRRWNCTTVHDSLAIFGPVLDKATRESAFVHAIASAGVAFAVTRSCAEGTAAICGCSSRHQGSPGKGWKWGGCSEDIEFGGMVSREFADARENRPDARSAMNRHNNEAGRQAIASHMHLKCKCHGLAGSCEVKTCWWSQPDFRAIGDFLKDKYDSASEMVVEKHRESRGWVETLRPRYTYFKVPTERDLVYYEASPNFCEPNPETGSFGTRDRTCNVSSHGIDGCDLLCCGRGHNARAERRREKCRCVFHWCCYVSCQECTRVYDVHTCK
B2: wild-type Xenopus Wnt8 (xWnt8^WT) (ligand, UniProt P28026 23-358, looked up)
chain: AWSVNNFLMTGPKAYLTYSASVAVGAQNGIEECKYQFAWERWNCPESTLQLATHNGLRSATRETSFVHAISSAGVMYTLTRNCSMGDFDNCGCDDSRNGRIGGRGWVWGGCSDNAEFGERISKLFVDGLETGQDARALMNLHNNEAGRLAVKETMKRTCKCHGISGSCSIQTCWLQLAEFRDIGNHLKIKHDQALKLEMDKRKMRSGNSADNRGAIADAFSSVAGSELIFLEDSPDYCLKNISLGLQGTEGRECLQSGKNLSQWERRSCKRLCTDCGLRVEEKKTEIISSCNCKFHWCCTVKCEQCKQVVIKHFCARRERDSNMLNTKRKNRGHRR
modifications: acylation site S187 (palmitoleoyl chain), as the paper says of the wild type

Target: T1, myc-tagged xFZD8 CRD (cysteine-rich domain of Xenopus Frizzled-8) (Xenopus, UniProt O93274 24-144)
T1 sequence (looked up): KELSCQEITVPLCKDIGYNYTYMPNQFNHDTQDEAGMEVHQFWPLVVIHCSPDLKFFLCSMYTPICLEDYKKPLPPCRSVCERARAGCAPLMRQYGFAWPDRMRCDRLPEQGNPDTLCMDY
Assay: co-IP

| Binder | fold reduction of apparent CRD binding strength against the wild type | fold more efficient co-immunoprecipitation than xWnt8^S187A |
| --- | --- | --- |
| B1 | ~10 fold |  |
| B2 |  | ~10 fold |
